# Measurements: US20110243928A1 (published 2011)
# T1: E. coli-expressed recombinant cynomolgus IL-13 (cynomolgus, UniProt Q5I6E4 21-132 (Macaca thibetana entry))
# T1 construct: also called cyno IL13 (CA); cIL-13
# T1 chain: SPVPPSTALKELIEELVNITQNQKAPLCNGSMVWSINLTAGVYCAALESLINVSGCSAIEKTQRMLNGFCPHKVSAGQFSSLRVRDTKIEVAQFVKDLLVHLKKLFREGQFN
# T2: E. coli-expressed recombinant human IL-4 (human, UniProt P05112 25-153)
# T2 sequence (looked up): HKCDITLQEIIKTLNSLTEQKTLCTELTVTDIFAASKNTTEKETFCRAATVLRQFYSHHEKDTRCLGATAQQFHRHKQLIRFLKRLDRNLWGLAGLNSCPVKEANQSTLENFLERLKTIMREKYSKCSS
# T3: 16mer biotinylated human IL-13 peptide number 24 (human, N-terminal biotin; C-terminal amide)
# T3 construct: format Biotin-SGSG-PEPTIDE-amide; also called Peptide 24
# T3 peptide: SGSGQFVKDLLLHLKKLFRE
# Key:
# [1] = biological target: T4, E. coli-expressed recombinant human IL-13 (human, UniProt P35225 35-146); test: BIAcore analysis 4, antibody captured on Protein A, IL-13 in solution
# T4 construct: Untagged E. coli-expressed human IL-13; also called hIL-13; human IL13 (CA)
# Method: (§1) Completed for both human and cynomolgus IL-13 (E. coli-expressed protein). The quoted KD values are the average from 5 different IL-13 concentration curves (done in triplicate).
# (§2) The kinetics analysis was performed on a Biacore 3000 machine, using an antibody capture method. Briefly, for the chimeric 6A1 and humanised antibody constructs Protein A capture was used, whilst for the parental murine 6A1 antibody, capture was by a anti-mouse Fc antibody supplied by Biacore. Briefly, the method is as follows, the capture ligand was immobilised to a CM5 Biosensor chip by primary amine coupling in accordance with Biacore standard protocols and using the reagents supplied in Biacores' primary amine coupling kit. The method involves activation CM5 sensor surface by passing a solution of 50 mM N-hydroxy-succinimide (NHS) and 200 mM N-ethyl-N′-dimethylaminopropyl […] (EDC) over the surface. Then, the capture ligand (dissolved in acetate buffer pH5 or pH4.5) was coupled to the activated sensor surface after which any still activated esters were blocked by an injection of 1M ethanolamine hydrochloride, pH8.5.
# (§3) The candidate antibody was then passed over the Protein A or anti-mouse Fc antibody surface, depending on whether it was human or mouse in origin and captured. Once a stable binding signal was seen IL13 was passed over the captured antibody surface at various defined concentrations. The subsequent binding curves were analysed with Biacore analysis software BIAeval v4.1 to determine kinetics. The experiments were carried out using Biacore HBS-EP buffer.
# [2] = biological target: T1, E. coli-expressed recombinant …; test: as above
# Method: as §1, §2, §3
# [3] = biological target: T5, E. coli-expressed recombinant det-1 tagged human IL-13 (human, UniProt P35225 35-146); test: competition ELISA: inhibition of det-1 tagged human IL-13 binding to human IL-13Rα1-Fc
# T5 construct: also called Det-1 tagged human IL-13 (made in-house); not shown: det-1 tag
# [4] = biological target: T6, native (PBMC derived) human IL-13 (human, UniProt P35225 35-146, limits assumed); test: ELISA on Th2 cell supernatant read against a standard curve
# T6 construct: IL-13 in supernatant of stimulated human CD4+ Th2 cells; also called native human IL-13; Native IL-13
# [5] = biological target: T2, E. coli-expressed recombinant human IL-4; test: binding ELISA
# [6] = biological target: T7, E. coli-expressed recombinant human GM-CSF (human, UniProt P04141 18-144); test: binding ELISA
# [7] = biological target: T5, E. coli-expressed recombinant det-1 …; test: competition ELISA: inhibition of det-1 tagged human IL-13 binding to human IL-13Rα2-Fc
# [8] = biological target: E. coli-expressed recombinant Q130 human IL-13 (human, UniProt P35225 35-146, limits assumed); test: cell-based or functional assay
# [9] = biological target: T4, E. coli-expressed recombinant human …; test: cell-based or functional assay
# [10] = biological target: T1, E. coli-expressed recombinant …; test: cell-based or functional assay
# [11] = biological target: mammalian-expressed (CHO cell) human IL-13 (human, UniProt P35225 35-146, limits assumed); test: cell-based or functional assay
# [12] = biological target: T1, E. coli-expressed recombinant …; test: cynomolgus IL-13 binding sandwich ELISA
# [13] = biological target: T4, E. coli-expressed recombinant human …; test: BIAcore analysis 1, antibody captured, IL-13 in solution
# Method: (§4) Completed for both human and cynomolgus IL-13 (E. coli-expressed protein). The quoted KD values are the average from 5 different IL-13 concentration curves (done in triplicate). Note that mass transfer issues were apparent in this analysis and that a modified experimental protocol (to correct for this issue) has been completed in analysis 4 (where no mass transfer issues were present).
# as §2, §3
# [14] = biological target: T1, E. coli-expressed recombinant …; test: as above
# Method: as §4, §2, §3
# [15] = biological target: T4, E. coli-expressed recombinant human …; test: human IL-13 binding sandwich ELISA
# [16] = biological target: T3, 16mer biotinylated human IL-13 peptide …; test: BIAcore analysis 3, antibody over biotinylated peptide on SA chip
# Method: Completed for the 16mer biotinylated human IL-13 peptide number 24 (identified as the linear binding epitope for parental mAb 6A1, see section 6.7). Note that the absolute KD values obtained for binding to peptide ligands are often quite different to those seen for binding to whole protein targets.
# The kinetics analysis was performed on a Biacore 3000 machine using direct binding of antibody to immobilised IL-13 peptide. Briefly, IL-13 biotinylated peptide was captured using a Biacore SA (strepavidin) Biosensor chip. The antibodies were then passed over the sensor surface at various concentrations. The subsequent binding curves were analysed with Biacore analysis software BIAeval 4.1 to determine kinetics. The experiment was carried out using Biacore HBS-EP buffer
# [17] = biological target: T7, E. coli-expressed recombinant human …; test: sandwich ELISA
# [18] = biological target: T2, E. coli-expressed recombinant human IL-4; test: human IL-4 binding sandwich ELISA
# [19] = biological target: T4, E. coli-expressed recombinant human …; test: human IL-13 binding ELISA, CHO supernatant
# [20] = biological target: T4, E. coli-expressed recombinant human …; test: sandwich ELISA
# T5 sequence (P35225 other isoform, or with tags, fused parts or gaps): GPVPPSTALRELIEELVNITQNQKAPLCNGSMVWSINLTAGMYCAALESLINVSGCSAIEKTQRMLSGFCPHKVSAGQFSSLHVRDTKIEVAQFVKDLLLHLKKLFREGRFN
# T4 sequence (P35225 other isoform, or with tags, fused parts or gaps): as above
# Chain of mammalian-expressed (CHO cell) human IL-13 (P35225 other isoform, or with tags, fused parts or gaps limits assumed): as the sequence (P35225 other isoform, or with tags, fused parts or gaps) above
# T6 sequence (P35225 other isoform, or with tags, fused parts or gaps limits assumed): as the sequence (P35225 other isoform, or with tags, fused parts or gaps) above
# T7 sequence (P04141 18-144 limits assumed): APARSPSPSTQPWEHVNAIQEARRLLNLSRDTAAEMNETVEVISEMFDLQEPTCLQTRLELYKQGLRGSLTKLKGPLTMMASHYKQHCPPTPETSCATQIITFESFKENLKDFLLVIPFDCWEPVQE
# Chain of E. coli-expressed recombinant Q130 human IL-13 (P35225 35-146 limits assumed): as the sequence (P35225 other isoform, or with tags, fused parts or gaps) above, with R110Q counted along it
binder,measurement,setting,value
"L2+A1 (antibody, human IgG1, kappa, V domains shown, Humanised 6A1, VH construct A1 and VL construct L2; also called A1L2) VH: QVQLVQSGAEVKKPGSSVKVSCKASGFYIKDTYMHWVRQAPGQGLEWMGTIDPANGNTKYVPKFQGRVTITADESTSTAYMELSSLRSEDTAVYYCARSIYDDYHYDDYYAMDYWGQGTLVTVSS VL: DIVMTQSPLSLPVTPGEPASISCRSSQNIVHINGNTYLEWYLQKPGQSPRLLIYKISDRFSGVPDRFSGSGSGTDFTLKISRVEADDVGVYYCFQGSHVPWTFGQGTKLEIKR",Kd,[1],0.153 nM
same,koff,[1],0.000139 s⁻¹
same,kon,[1],907000 M⁻¹ s⁻¹
same,Kd,[2],0.055 nM
same,koff,[2],4.25e-05 s⁻¹
same,kon,[2],772000 M⁻¹ s⁻¹
same,IC50,[3],0.056 µg/mL
same,Native IL-13 (ng/ml) detected in Th2 supernatant,[4],22.7 ng/mL
same,binding result,[5],no binding (tested: 30 µg/ml)
same,binding result,[6],no binding (tested: 30 µg/ml)
same,IC50,[7],0.117 µg/mL
same,Mean ND50 for 2 assays,[8],0.705 µg/mL
same,Mean ND50 for 2 assays,[9],0.608 µg/mL
same,Mean ND50 for 2 assays,[10],0.12 µg/mL
same,Mean ND50 for 2 assays,[11],1.2 µg/mL
same,EC50,[12],0.028 µg/mL
same,Kd,[13],0.31 nM
same,koff,[13],0.000156 s⁻¹
same,kon,[13],507000 M⁻¹ s⁻¹
same,Kd,[14],0.097 nM
same,koff,[14],5.58e-05 s⁻¹
same,kon,[14],577000 M⁻¹ s⁻¹
same,EC50,[15],0.024 µg/mL
same,Kd,[16],9.35 nM
same,koff,[16],0.00167 s⁻¹
same,kon,[16],179000 M⁻¹ s⁻¹
"chimaeric 6A1 (antibody, human IgG1, V domains shown, Parent murine 6A1 V regions on human IgG1/k wild type C regions, expressed in CHO cells; also called 6A1c; 6A1 chimaeric antibody) VH: EIQLQQSVAELVRPGASVRLSCTASGFYIKDTYMHWVIQRPEQGLEWIGTIDPANGNTKYVPKFQGKATITADTSSNTAYLRLSSLTSEDTAIYYCARSIYDDYHYDDYYAMDYWGQGTSVTVSS VL: DVLMTQTPLSLPVSLGDQASISCRSSQNIVHINGNTYLEWYLQKPGQSPKLLIYKISDRFSGVPDRFSGSGSGTDFTLKISRVEAEDLGVYYCFQGSHVPWTFGGGTKLEIK",Kd,[1],0.038 nM
same,koff,[1],4e-05 s⁻¹
same,kon,[1],1.05e+06 M⁻¹ s⁻¹
same,Kd,[2],0.03 nM
same,koff,[2],2.65e-05 s⁻¹
same,kon,[2],885000 M⁻¹ s⁻¹
same,IC50,[3],0.034 µg/mL
same,Native IL-13 (ng/ml) detected in Th2 supernatant,[4],19.6 ng/mL
same,IC50,[7],0.04 µg/mL
same,Mean ND50 for 2 assays,[8],0.128 µg/mL
same,Mean ND50 for 2 assays,[9],0.119 µg/mL
same,Mean ND50 for 2 assays,[10],0.059 µg/mL
same,Mean ND50 for 2 assays,[11],0.285 µg/mL
same,EC50,[12],0.018 µg/mL
same,binding result,[17],no binding
same,Kd,[13],0.043 nM
same,koff,[13],2e-05 s⁻¹
same,kon,[13],464000 M⁻¹ s⁻¹
same,Kd,[14],0.055 nM
same,koff,[14],3.27e-05 s⁻¹
same,kon,[14],592000 M⁻¹ s⁻¹
same,binding result,[18],no binding
same,EC50,[15],0.015 µg/mL
same,Kd,[16],3.58 nM
same,koff,[16],0.000919 s⁻¹
same,kon,[16],257000 M⁻¹ s⁻¹
"A2L1 (antibody, human IgG1, kappa, V domains shown, Humanised 6A1 combination, tested as CHO cell supernatant) VH: QVQLVQSGAEVKKPGSSVKVSCKASGFYIKDTYMHWVIQAPGQGLEWMGTIDPANGNTKYVPKFQGRVTITADESTSTAYMELSSLRSEDTAVYYCARSIYDDYHYDDYYAMDYWGQGTLVTVSS VL: DIVMTQSPLSLPVTPGEPASISCRSSQNIVHINGNTYLEWYLQKPGQSPRLLIYKISDRFSGVPDRFSGSGSGTDFTLKISRVEADDVGIYYCFQGSHVPWTFGQGTKLEIKR",binding result,[19],binds
"A2L2 (antibody, human IgG1, kappa, V domains shown, Humanised 6A1 combination, tested as CHO cell supernatant) VH: QVQLVQSGAEVKKPGSSVKVSCKASGFYIKDTYMHWVIQAPGQGLEWMGTIDPANGNTKYVPKFQGRVTITADESTSTAYMELSSLRSEDTAVYYCARSIYDDYHYDDYYAMDYWGQGTLVTVSS VL: DIVMTQSPLSLPVTPGEPASISCRSSQNIVHINGNTYLEWYLQKPGQSPRLLIYKISDRFSGVPDRFSGSGSGTDFTLKISRVEADDVGVYYCFQGSHVPWTFGQGTKLEIKR",binding result,[19],binds
"A3L1 (antibody, human IgG1, kappa, V domains shown, Humanised 6A1 combination, tested as CHO cell supernatant) VH: QVQLVQSGAEVKKPGSSVKVSCKASGFYIKDTYMHWVIQAPGQGLEWMGTIDPANGNTKYVPKFQGRVTITADTSTSTAYMELSSLRSEDTAVYYCARSIYDDYHYDDYYAMDYWGQGTLVTVSS VL: DIVMTQSPLSLPVTPGEPASISCRSSQNIVHINGNTYLEWYLQKPGQSPRLLIYKISDRFSGVPDRFSGSGSGTDFTLKISRVEADDVGIYYCFQGSHVPWTFGQGTKLEIKR",binding result,[19],binds
"A3L2 (antibody, human IgG1, kappa, V domains shown, Humanised 6A1 combination, tested as CHO cell supernatant) VH: QVQLVQSGAEVKKPGSSVKVSCKASGFYIKDTYMHWVIQAPGQGLEWMGTIDPANGNTKYVPKFQGRVTITADTSTSTAYMELSSLRSEDTAVYYCARSIYDDYHYDDYYAMDYWGQGTLVTVSS VL: DIVMTQSPLSLPVTPGEPASISCRSSQNIVHINGNTYLEWYLQKPGQSPRLLIYKISDRFSGVPDRFSGSGSGTDFTLKISRVEADDVGVYYCFQGSHVPWTFGQGTKLEIKR",binding result,[19],binds
"A4L1 (antibody, human IgG1, kappa, V domains shown, Humanised 6A1 combination, tested as CHO cell supernatant) VH: QVQLVQSGAEVKKPGSSVRVSCKASGFYIKDTYMHWVIQAPGQGLEWMGTIDPANGNTKYVPKFQGRVTITADTSTSTAYMRLSSLRSEDTAVYYCARSIYDDYHYDDYYAMDYWGQGTLVTVSS VL: DIVMTQSPLSLPVTPGEPASISCRSSQNIVHINGNTYLEWYLQKPGQSPRLLIYKISDRFSGVPDRFSGSGSGTDFTLKISRVEADDVGIYYCFQGSHVPWTFGQGTKLEIKR",binding result,[20],binds
"A4L2 (antibody, human IgG1, kappa, V domains shown, Humanised 6A1 combination, tested as CHO cell supernatant) VH: QVQLVQSGAEVKKPGSSVRVSCKASGFYIKDTYMHWVIQAPGQGLEWMGTIDPANGNTKYVPKFQGRVTITADTSTSTAYMRLSSLRSEDTAVYYCARSIYDDYHYDDYYAMDYWGQGTLVTVSS VL: DIVMTQSPLSLPVTPGEPASISCRSSQNIVHINGNTYLEWYLQKPGQSPRLLIYKISDRFSGVPDRFSGSGSGTDFTLKISRVEADDVGVYYCFQGSHVPWTFGQGTKLEIKR",binding result,[20],binds
